Measured values published in the supplement of paper PMC10567573.

B1: FBXO34 (parent)
chain: ASSVESTLPVLEASSWKKQVSHDF

Variants of: B1
Assay: protein stability index of a GFP-peptide fusion (GPS, HEK-293T) (PSI 1-6); higher = more stable
Conditions: c terminus: a fixed tail appended
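Further: lentivirally expressed fusions sorted by FACS into six bins by GFP to DsRed ratio, PSI derived from sequencing read proportions per bin multiplied by bin number.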

Variant	protein stability index
L8F	2.52
L8S	3.57
L8H	2.89
L8Y	2.39
L8P	2.66
L8I	2.82
L8Q	2.04
L8G	3.59
L8V	1.83
L8K	3.22
L8R	3.05
L8M	1.91
L8C	3.4
L8E	3.38
L8T	3.38
V10E	2.83
V10N	1.84
V10K	2.45
V10A	3.64
V10Y	1.76
V10G	3.41
V10R	2.3
V10P	3.19
V10T	2.58

Variant	protein stability index
V10S	3.22
V10L	2.55
V10D	3.25
V10W	2.37
V10H	2.5
V10Q	3.16
V10F	2.22
V10I	2.39
V10M	3.73
V10C	2.95
S15M	3.5
S15N	2.88
S15R	3.81
S15P	3.61
S15T	3.07
S15L	3.4
S15Y	2.99
S15F	2.75
S15K	3.92
S15I	4.11
S15W	2.38
S15Q	3.44
S15A	3.05
S15V	2.84

Variant	protein stability index
S15G	3.65
S15H	3.24
S15D	4.01
W16F	3.67
W16D	5.44
W16K	4.18
W16A	4.01
W16V	4.99
W16P	4.61
W16S	4.2
W16L	3.94
W16R	4.69
W16G	4.66
W16N	4.99
W16Y	3.75
W16C	4.2
W16M	5.15
W16T	4.81
W16I	3.71
W16E	5.07
W16Q	4.71
W16H	4.31
S14L	2.14
S14H	2.4

Variant	protein stability index
S14Y	2.3
S14I	3.74
S14R	2.39
S14T	2.33
S14V	2.35
S14P	3.07
S14M	1.53
S14E	2.75
S14D	1.67
S14W	1.12
S14N	3.02
S14Q	2.4
S14F	2.49
S14C	2.95
S14G	2.8
L11K	2.19
L11A	3.52
L11Y	2.69
L11Q	2.96
L11F	2.88
L11N	2.85
L11T	2.87
L11M	2.33
L11I	2.91

Variant	protein stability index
L11R	3.05
L11W	2.54
L11C	2.85
L11P	2.78
L11V	3.03
L11E	3.02
L11G	2.01
A13F	2.38
A13Q	2.37
A13N	3.21
A13V	3
A13D	3.19
A13P	3.66
A13S	3.36
A13M	2.85
A13R	1.59
A13L	2.61
A13H	2.37
A13C	2.36
A13I	2.49
A13K	2.27
A13T	2.18
K17P	3.95
K17M	2.58

Variant	protein stability index
K17T	1.61
K17C	3.17
K17Q	1.52
K17I	1.59
K17L	2.85
K17F	2.85
K17N	3.75
K17G	2.98
K17H	3.17
K17D	4.16
K17A	1.83
K17S	2.38
T7R	2.7
T7V	2.85
T7S	3.94
T7Y	3.37
E12A	3.02
E12F	2.25
E12C	2.54
E12T	2.86
E12L	2.24
E12N	3.1
E12I	2.12
E12G	2.49

Variant	protein stability index
E12K	2.36
E12P	3.46
E12D	2.83
E12Y	2.22
E12S	2.32
E12H	2.82
E12V	2.73
P9M	2.6
P9N	2.51
P9I	1.74
P9H	1.56
P9V	2.4
P9S	2.28
P9C	3.55
P9K	2.5
P9E	1.96
P9G	1.89
P9D	3.03
P9Y	1.8
P9F	2.12
P9L	2.04
P9T	1.98
P9W	2.8
